# Laboratory results taken from paper PMC9789309.
# Target: ACE2, membrane-anchored, endogenously expressed on VeroE6 cells (African green monkey (endogenous in VeroE6))
# Experiment: single-molecule force spectroscopy (AFM)
substance,measurement,value
"SARS-CoV-2 Spike receptor binding domain, Wuhan reference strain, monomer (from UniProt P0DTC2 319-541) (domain or fragment)",Kd,3.2 nM
same,koff,0.00032 s⁻¹
same,kon,100000 M⁻¹ s⁻¹
